# B1: Neuroligin-2 (Rattus norvegicus (Rat)), Q62888-2 (parent)
# chain: MWLLALCLVGLAGAQRGGGGPGGGAPGGPGLGLGSLGEERFPVVNTAYGRVRGVRRELNNEILGPVVQFLGVPYATPPLGARRFQPPEAPASWPGVRNATTLPPACPQNLHGALPAIMLPVWFTDNLEAAATYVQNQSEDCLYLNLYVPTEDDIRDSGKKPVMLFLHGGSYMEGTGNMFDGSVLAAYGNVIVATLNYRLGVLGFLSTGDQAAKGNYGLLDQIQALRWLSENIAHFGGDPERITIFGSGAGASCVNLLILSHHSEGLFQKAIAQSGTAISSWSVNYQPLKYTRLLAAKVGCDREDSTEAVECLRRKSSRELVDQDVQPARYHIAFGPVVDGDVVPDDPEILMQQGEFLNYDMLIGVNQGEGLKFVEDSAESEDGVSASAFDFTVSNFVDNLYGYPEGKDVLRETIKFMYTDWADRDNGEMRRKTLLALFTDHQWVAPAVATAKLHADYQSPVYFYTFYHHCQAEGRPEWADAAHGDELPYVFGVPMVGATDLFPCNFSKNDVMLSAVVMTYWTNFAKTGDPNQPVPQDTKFIHTKPNRFEEVVWSKFNSKEKQYLHIGLKPRVRDNYRANKVAFWLELVPHLHNLHTELFTTTTRLPPYATRWPPRTPGPGTSGTRRPPPPATLPPESDIDLGPRAYDRFPGDSRDYSTELSVTVAVGASLLFLNILAFAALYYKRDRRQELRCRRLSPPGGSGSGVPGGGPLLPTAGRELPPEEELVSLQLKRGGGVGADPAEALRPACPPDYTLALRRAPDDVPLLAPGALTLLPSGLGPPPPPPPPSLHPFGPFPPPPPTATSHNNTLPHPHSTTRV
# B2: Neuroligin-1 (Rattus norvegicus (Rat)), Q62765-2 (parent)
# chain: MALPRCMWPNYVWRAMMACVVHRGSGAPLTLCLLGCLLQTFHVLSQKLDDVDPLVTTNFGKIRGIKKELNNEILGPVIQFLGVPYAAPPTGEHRFQPPEPPSPWSDIRNATQFAPVCPQNIIDGRLPEVMLPVWFTNNLDVVSSYVQDQSEDCLYLNIYVPTEDDIRDSGGPKPVMVYIHGGSYMEGTGNLYDGSVLASYGNVIVITVNYRLGVLGFLSTGDQAAKGNYGLLDLIQALRWTSENIGFFGGDPLRITVFGSGAGGSCVNLLTLSHYSEGLFQRAIAQSGTALSSWAVSFQPAKYARILATKVGCNVSDTVELVECLQKKPYKELVDQDVQPARYHIAFGPVIDGDVIPDDPQILMEQGEFLNYDIMLGVNQGEGLKFVENIVDSDDGVSASDFDFAVSNFVDNLYGYPEGKDVLRETIKFMYTDWADRHNPETRRKTLLALFTDHQWVAPAVATADLHSNFGSPTYFYAFYHHCQTDQVPAWADAAHGDEVPYVLGIPMIGPTELFPCNFSKNDVMLSAVVMTYWTNFAKTGDPNQPVPQDTKFIHTKPNRFEEVAWTRYSQKDQLYLHIGLKPRVKEHYRANKVNLWLELVPHLHNLNDISQYTSTTTKVPSTDITLRPTRKNSTPVTSAFPTAKQDDPKQQPSPFSVDQRDYSTELSVTIAVGASLLFLNILAFAALYYKKDKRRHDVHRRCSPQRTTTNDLTHAPEEEIMSLQMKHTDLDHECESIHPHEVVLRTACPPDYTLAMRRSPDDVPLMTPNTITMIPNTIPGIQPLHTFNTFTGGQNNTLPHPHPHPHSHSTTRV
# Variants of: B1
# Conditions: with Nrxn1, Q63373-3
row,Variant,effect of a mutation on the interaction
1,Q458G,increasing interaction

# Variants of: B2
# Conditions: with Nrxn1, Q63373-3
# Target sequence in this assay (Q63373 other isoform, or with tags, fused parts or gaps): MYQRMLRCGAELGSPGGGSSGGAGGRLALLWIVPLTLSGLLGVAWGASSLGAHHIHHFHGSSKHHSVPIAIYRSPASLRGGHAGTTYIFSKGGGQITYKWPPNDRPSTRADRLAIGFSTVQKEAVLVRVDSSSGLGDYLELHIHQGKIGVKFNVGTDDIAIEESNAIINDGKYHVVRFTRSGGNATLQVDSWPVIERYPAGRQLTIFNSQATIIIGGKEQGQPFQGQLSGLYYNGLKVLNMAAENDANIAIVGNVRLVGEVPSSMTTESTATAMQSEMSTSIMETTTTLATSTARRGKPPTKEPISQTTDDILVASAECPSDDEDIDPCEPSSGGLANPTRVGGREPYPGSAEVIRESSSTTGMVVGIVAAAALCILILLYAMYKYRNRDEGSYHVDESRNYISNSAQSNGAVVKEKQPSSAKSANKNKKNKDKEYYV
row,Variant,effect of a mutation on the interaction
1,G471A,disrupting interaction
